Reference: patent publication US20210388087A1
Positions count from the first letter of the chain named. Names may count otherwise.

B1: H183/L072 VL T31G (antibody, name in Kabat numbering, V domains shown)
VH: QVQLVESGGGLVQPGRSLRLSCAASGFTFSNAWMHWVRQAPGKGLEWVAQIKDKGNAYAAYYAPSVKGRFTISRDDSKNSIYLQMNSLKTEDTAVYYCHYVHYASASTVLPAFGVDAWGQGTTVTVSS
VL: DIVMTQSPLSLPVTPGEPASISCQASQELVHMNRNGYLHWYQQKPGQAPRLLIYKVSNRFPGVPDRFSGSGSGTDFTLKISRVEAEDVGVYYCAQGTSVPFTFGQGTKLEIK
B2: H183/L072 VL A25E (antibody, name in Kabat numbering, V domains shown)
VH: B1 VH
VL: B1 VL with A25E, G36T
B3: H183/L072 VL Y32K (antibody, name in Kabat numbering, V domains shown)
VH: B1 VH
VL: B1 VL with G36T, Y37K
B4: H183/L072 VL H34E (antibody, name in Kabat numbering, V domains shown)
VH: B1 VH
VL: B1 VL with G36T, H39E
B5: H183/L072 VL Y32D (antibody, name in Kabat numbering, V domains shown)
VH: B1 VH
VL: B1 VL with G36T, Y37D
B6: H183/L072 VL A25R (antibody, name in Kabat numbering, V domains shown)
VH: B1 VH
VL: B1 VL with A25R, G36T
B7: H183/L072 VL Q24E (antibody, name in Kabat numbering, V domains shown)
VH: B1 VH
VL: B1 VL with Q24E, G36T
B8: H183/L072 VL Y32E (antibody, name in Kabat numbering, V domains shown)
VH: B1 VH
VL: B1 VL with G36T, Y37E
B9: H183/L072 VL L33S (antibody, name in Kabat numbering, V domains shown)
VH: B1 VH
VL: B1 VL with G36T, L38S
B10: H183/L072 VL T31H (antibody, name in Kabat numbering, V domains shown)
VH: B1 VH
VL: B1 VL with G36H
B11: H183/L072 VL A25K (antibody, name in Kabat numbering, V domains shown)
VH: B1 VH
VL: B1 VL with A25K, G36T
B12: H183/L072 VL H34S (antibody, name in Kabat numbering, V domains shown)
VH: B1 VH
VL: B1 VL with G36T, H39S
B13: H183/L072 VL H34K (antibody, name in Kabat numbering, V domains shown)
VH: B1 VH
VL: B1 VL with G36T, H39K
B14: H183/L072 VL H34Q (antibody, name in Kabat numbering, V domains shown)
VH: B1 VH
VL: B1 VL with G36T, H39Q
B15: H183/L072 VL L33D (antibody, name in Kabat numbering, V domains shown)
VH: B1 VH
VL: B1 VL with G36T, L38D
B16: H183/L072 VL H34N (antibody, name in Kabat numbering, V domains shown)
VH: B1 VH
VL: B1 VL with G36T, H39N
B17: H183/L072 VL L33K (antibody, name in Kabat numbering, V domains shown)
VH: B1 VH
VL: B1 VL with G36T, L38K
B18: H183/L072 VL L27bN (antibody, name in Kabat numbering, V domains shown)
VH: B1 VH
VL: B1 VL with L29N, G36T
B19: H183/L072 VL N28D (antibody, name in Kabat numbering, V domains shown)
VH: B1 VH
VL: B1 VL with N33D, G36T
B20: H183/L072 VL H34G (antibody, name in Kabat numbering, V domains shown)
VH: B1 VH
VL: B1 VL with G36T, H39G
B21: H183/L072 VL A25D (antibody, name in Kabat numbering, V domains shown)
VH: B1 VH
VL: B1 VL with A25D, G36T
B22: H183/L072 VL Y32T (antibody, name in Kabat numbering, V domains shown)
VH: B1 VH
VL: B1 VL with G36T, Y37T
B23: H183/L072 VL A25H (antibody, name in Kabat numbering, V domains shown)
VH: B1 VH
VL: B1 VL with A25H, G36T
B24: H183/L072 VL Y32S (antibody, name in Kabat numbering, V domains shown)
VH: B1 VH
VL: B1 VL with G36T, Y37S
B25: H183/L072 VL H34T (antibody, name in Kabat numbering, V domains shown)
VH: B1 VH
VL: B1 VL with G36T, H39T
B26: H183/L072 VL T31N (antibody, name in Kabat numbering, V domains shown)
VH: B1 VH
VL: B1 VL with G36N
B27: H183/L072 VL H34D (antibody, name in Kabat numbering, V domains shown)
VH: B1 VH
VL: B1 VL with G36T, H39D
B28: H183/L072 VL F96W (antibody, name in Kabat numbering, V domains shown)
VH: B1 VH
VL: B1 VL with G36T, F101W
B29: H183/L072 VL V51F (antibody, name in Kabat numbering, V domains shown)
VH: B1 VH
VL: B1 VL with G36T, V56F
B30: H183/L072 VL P95F (antibody, name in Kabat numbering, V domains shown)
VH: B1 VH
VL: B1 VL with G36T, P100F
B31: H183/L072 VL P95R (antibody, name in Kabat numbering, V domains shown)
VH: B1 VH
VL: B1 VL with G36T, P100R
B32: H183/L072 VL G91F (antibody, name in Kabat numbering, V domains shown)
VH: B1 VH
VL: B1 VL with G36T, G96F
B33: H183/L072 VL V94W (antibody, name in Kabat numbering, V domains shown)
VH: B1 VH
VL: B1 VL with G36T, V99W
B34: H183/L072 VL F96R (antibody, name in Kabat numbering, V domains shown)
VH: B1 VH
VL: B1 VL with G36T, F101R
B35: H183/L072 VL Q90W (antibody, name in Kabat numbering, V domains shown)
VH: B1 VH
VL: B1 VL with G36T, Q95W
B36: H183/L072 VL T97W (antibody, name in Kabat numbering, V domains shown)
VH: B1 VH
VL: B1 VL with G36T, T102W
B37: H183/L072 VL Q90F (antibody, name in Kabat numbering, V domains shown)
VH: B1 VH
VL: B1 VL with G36T, Q95F
B38: H183/L072 VL P95W (antibody, name in Kabat numbering, V domains shown)
VH: B1 VH
VL: B1 VL with G36T, P100W
B39: H183/L072 VL Q90R (antibody, name in Kabat numbering, V domains shown)
VH: B1 VH
VL: B1 VL with G36T, Q95R
B40: H183/L072 VL K50F (antibody, name in Kabat numbering, V domains shown)
VH: B1 VH
VL: B1 VL with G36T, K55F
B41: H183/L072 VL G91R (antibody, name in Kabat numbering, V domains shown)
VH: B1 VH
VL: B1 VL with G36T, G96R
B42: H183/L072 VL V51W (antibody, name in Kabat numbering, V domains shown)
VH: B1 VH
VL: B1 VL with G36T, V56W
B43: H183/L072 VL K50W (antibody, name in Kabat numbering, V domains shown)
VH: B1 VH
VL: B1 VL with G36T, K55W
B44: H183/L072 VL K50Q (antibody, name in Kabat numbering, V domains shown)
VH: B1 VH
VL: B1 VL with G36T, K55Q
B45: H183/L072 VL T92W (antibody, name in Kabat numbering, V domains shown)
VH: B1 VH
VL: B1 VL with G36T, T97W
B46: H183/L072 VL G91W (antibody, name in Kabat numbering, V domains shown)
VH: B1 VH
VL: B1 VL with G36T, G96W
B47: H183/L072 VL A89R (antibody, name in Kabat numbering, V domains shown)
VH: B1 VH
VL: B1 VL with G36T, A94R

Target: Human CD137 ECD (human)
Sequence (chain, as listed by the source limits assumed): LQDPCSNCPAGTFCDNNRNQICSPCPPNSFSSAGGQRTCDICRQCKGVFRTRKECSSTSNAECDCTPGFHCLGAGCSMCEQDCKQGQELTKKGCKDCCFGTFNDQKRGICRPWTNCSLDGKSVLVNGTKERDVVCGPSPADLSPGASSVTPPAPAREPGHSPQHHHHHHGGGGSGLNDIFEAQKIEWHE
Assay: Biacore SPR, vs parent H183/L072

Binder | fold change of affinity [fold]
B1 | 0
B2 | 0
B3 | 0
B4 | 0
B5 | 0
B6 | 0
B7 | 0
B8 | 0
B9 | 0
B10 | 0
B11 | 0
B12 | 0
B13 | 0
B14 | 0
B15 | 0
B16 | 0
B17 | 0
B18 | 0
B19 | 0
B20 | 0
B21 | 0
B22 | 0
B23 | 0
B24 | 0
B25 | 0
B26 | 0
B27 | 0

Target: Human CD3eg linker (human)
Sequence (chain, as listed by the source limits assumed): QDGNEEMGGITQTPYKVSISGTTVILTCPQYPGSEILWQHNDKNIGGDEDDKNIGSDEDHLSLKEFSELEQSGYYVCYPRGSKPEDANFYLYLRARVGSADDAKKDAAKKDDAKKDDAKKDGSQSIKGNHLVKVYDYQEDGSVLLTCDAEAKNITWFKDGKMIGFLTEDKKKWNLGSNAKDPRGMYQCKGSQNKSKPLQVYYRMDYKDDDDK
Assay: SPR; fold vs parent H183/L072

Binder | fold change of affinity [fold]
B28 | 0
B29 | 0
B30 | 0
B31 | 0
B32 | 0
B33 | 0
B34 | 0
B35 | 0
B36 | 0
B37 | 0
B38 | 0
B39 | 0
B40 | 0
B41 | 0
B42 | 0
B43 | 0
B44 | 0
B45 | 0
B46 | 0
B47 | 0
